Measurements taken from US20160075790A1 (Bristol-Myers Squibb, published 2016).
Substitutions are numbered along the chain they refer to. Values joined by “and” are separate entries in the source; they are usually repeats but may differ in a detail not shown here. Identical values can stand only once.

T1: human isoleucine zipper-CD40L (IZ-hCD40L) (human, UniProt P29965 113-261)
T1 sequence: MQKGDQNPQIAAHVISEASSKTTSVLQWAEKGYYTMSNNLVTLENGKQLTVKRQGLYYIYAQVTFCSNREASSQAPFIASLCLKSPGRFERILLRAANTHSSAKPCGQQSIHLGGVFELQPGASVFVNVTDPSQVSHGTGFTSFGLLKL

B1: BMS2h-706 (other)
VH: EVQLLESGGGLVQPGGSLRLSCAASGFTFGSYKMLWVRQAPGKGLEWVSSITNSGTETYYADSVKGRFTISRDNSKNTLYLQMNSLRAEDTAVYYCAKSMYPDLEIVHFDYWGQGTLVTVSS
B2: BMS2h-703 (other)
VH: EVQLLESGGGLVQPGGSLRLSCAASGFTFYNYDMSWVRQAPGKGLEWVSGIDSMGLVTYYADSVKGRFTISRDNSKNTLYLQMNSLRAEDTAVYYCAKGSNASDWVVFDYWGQGTLVTVSS
B3: BMS2h-707 (other)
VH: EVQLLESGGGLVQPGGSLRLSCAASGFTFETYRMSWVRQAPGKGLEWVSAIDQEGSATYYADSVKGRFTISRDNSKNTLYLQMNSLRAEDTAVYYCAKNSGTRPGLRFDYWGQGTLVTVSS
B4: BMS2h-712 (other)
VH: EVQLLESGGGLVQPGGSLRLSCAASGFTFPEYEMKWVRQAPGKGLEWVSTITPSGGHTYYADSVKGRFTISRDNSKNTLYLQMNSLRAEDAAVYYCAIPLSSFDYWGRGTLVTVSS
B5: BMS2h-710 (other)
VH: EVQLLESGGGLVQPGGSLRLSCAASGFTFNTYSMSWVRQAPGKGLEWVSWIDADGWVTYYADSVKGRFTISRDNSKNTLYLQMNSLRAEDTAVYYCAQTGHTFDYWGQGTLVTVSS
B6: BMS2h-719 (other)
VH: EVQLLESGGGLVQPGGSLRLSCAASGFTFKRYEMTWVRQAPGKGLEWVSSISSDGSFTYYADSVKGRFTISRDNSKNTLYLQMNSLRAEDTAVYYCAEPFTEFDYWGQGTLVTVSS
B7: BMS2h-719-203 (other)
VH: B6 VH with K30N, R31S, T35M, Q108H
B8: BMS2h-719-213 (other)
VH: B6 VH with T35M, E98D, F103M, Q108H
B9: BMS2h-719-215 (other)
VH: B6 VH with T35M, F103L, Q108H
B10: BMS2h-719-214 (other)
VH: B6 VH with T35M, E98D, Q108H
B11: BMS2h-719-218 (other)
VH: B6 VH with T35M, D62E, Q108H
B12: BMS2h-572-12 (other)
VH: EVQLLESGGGLVQPGGSLRLSCAASGFTFNWQLMGWARQAPGKGLEWVSGIEGPGDVTYYADSVKGRFTISRDNSKNTLYLQMNSLRAEDTAVYYCAKVGKESNSDYRGQGTLVTVSS
B13: BMS2h-572-22 (other)
VH: B12 VH with L5F, L11S, A37V
B14: BMS2h-717 (other)
VH: EVQLLESGGGLVQPGGSLRLSCAASGFTFSSYEMAWVRQAPGKGLEWVSRIEPDGSNTYYADSVKGRFTISRDNSKNTLYLQMNSLRAEDTAVYYCAKGPDNFTMFDYWGQGTLVTVSS
B15: BMS2h-702 (other)
VH: EVQLLESGGGLVQPGGSLRLSCAASGFTFAEYEMMWARQAPGKGLEWVSRIAGNGSRTYYADSVKGRFTISRDNSKNTLYLQMNSLRAEDTAVYYCAIMLSHFDYWGQGTLVTVSS

target: T1, human isoleucine zipper-CD40L …; assay: cell-based or functional assay

Row | Binder | hIZCD40L-driven Human B Cell Proliferation EC50
1 | B1 | > 7000 nM
2 | B2 | > 7000 nM
3 | B3 | > 7000 nM
4 | B4 | > 7000 nM
5 | B5 | > 7000 nM
6 | B6 | 600 nM
7 | B7 | 81 nM and 96 nM
8 | B8 | 62 nM and 98 nM
9 | B9 | 92 nM and 91 nM
10 | B10 | 66 nM and 89 nM
11 | B11 | 57 nM and 60 nM
12 | B12 | 79 nM and 76 nM
13 | B13 | 357 nM and 305 nM
14 | B14 | > 7000 nM
15 | B15 | > 7000 nM
